# Measured values as given in article PMC11569192 (Nature Communications, 2024).
# T1: UFCM1-P2-iSS (Human metapneumovirus, strain NL/1/00 …, stabilised)
# T1 chain: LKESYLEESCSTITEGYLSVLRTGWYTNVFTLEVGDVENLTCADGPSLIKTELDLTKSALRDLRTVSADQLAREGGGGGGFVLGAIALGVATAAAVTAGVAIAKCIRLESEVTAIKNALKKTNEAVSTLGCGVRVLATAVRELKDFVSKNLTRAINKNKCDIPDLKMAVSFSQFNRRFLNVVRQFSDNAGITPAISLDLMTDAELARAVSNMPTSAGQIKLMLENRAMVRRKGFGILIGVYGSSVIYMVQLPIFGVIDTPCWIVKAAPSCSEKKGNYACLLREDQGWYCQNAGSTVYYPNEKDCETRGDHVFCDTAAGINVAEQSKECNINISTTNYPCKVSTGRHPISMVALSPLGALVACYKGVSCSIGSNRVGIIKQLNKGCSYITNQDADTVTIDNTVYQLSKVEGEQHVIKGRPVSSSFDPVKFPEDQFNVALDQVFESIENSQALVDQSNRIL
# T2: sc9-10 DS-Cav1 (Human respiratory syncytial virus A, …, S215P | A149C | Y458C | S46G | K465Q)
# T2 chain: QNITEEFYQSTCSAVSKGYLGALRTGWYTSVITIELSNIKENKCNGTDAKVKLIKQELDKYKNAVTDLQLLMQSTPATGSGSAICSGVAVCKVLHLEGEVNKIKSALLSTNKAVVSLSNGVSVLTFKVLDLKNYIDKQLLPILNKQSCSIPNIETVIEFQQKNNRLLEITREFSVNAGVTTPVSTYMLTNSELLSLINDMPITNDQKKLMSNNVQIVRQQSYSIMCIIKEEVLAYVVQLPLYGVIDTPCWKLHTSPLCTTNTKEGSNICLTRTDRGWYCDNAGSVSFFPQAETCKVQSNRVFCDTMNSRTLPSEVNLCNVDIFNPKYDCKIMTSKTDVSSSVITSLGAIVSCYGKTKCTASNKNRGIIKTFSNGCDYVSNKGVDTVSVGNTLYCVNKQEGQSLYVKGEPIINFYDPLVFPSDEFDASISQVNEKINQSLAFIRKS
# Experiments:
# [1] = molecular target: DS-Cav1 (respiratory syncytial virus subtype A, strain A2 | not stated) (UniProt P03420); assay: SEC
# [2] = molecular target: DS-Cav1-His6 (respiratory syncytial virus subtype A, strain A2 | not stated) (UniProt P03420); assay: negative-stain EM
# [3] = molecular target: DS-Cav1-His6 (respiratory syncytial virus subtype A, strain A2 | not stated) (UniProt P03420); assay: cross-linking
# [4] = molecular target: DS-Cav1-His6 (respiratory syncytial virus subtype A, strain A2 | not stated) (UniProt P03420); assay: SEC
# [5] = molecular target: SC-TM-His6 (respiratory syncytial virus subtype A, strain A2 | not stated) (UniProt P03420); assay: cross-linking
# [6] = molecular target: SC-TM-His6 (respiratory syncytial virus subtype A, strain A2 | not stated) (UniProt P03420); assay: SEC
# [7] = molecular target: sc9-10 DS-Cav1 (respiratory syncytial virus subtype A, strain A2 | not stated) (UniProt P03420); assay: SEC
# [8] = molecular target: sc9-10 DS-Cav1-His6 (respiratory syncytial virus subtype A, strain A2 | not stated) (UniProt P03420); assay: cross-linking
# [9] = molecular target: sc9-10 DS-Cav1-His6 (respiratory syncytial virus subtype A, strain A2 | not stated) (UniProt P03420); assay: SEC
# UFCM1 = UFCM1 (human metapneumovirus, Q1A2Z0 …, UniProt Q1A2Z0, E80D | T127C | N153C | A185P); assay: ELISA
# 847A-His6 = 847A-His6 (human respiratory syncytial virus A, …, UniProt A0A7D5GVC1, I148C | D486S); assay: ELISA
# UFCM1-P2 = UFCM1-P2 (human metapneumovirus, Q1A2Z0 …, UniProt Q1A2Z0, E80D | T127C | N153C | A185P | V155P); assay: ELISA
# UFCM1-P2-iSS = molecular target: T1, UFCM1-P2-iSS; assay: negative-stain EM
# sc9-10 DS-Cav1 = molecular target: T2, sc9-10 DS-Cav1; assay: cell-based or functional assay
molecule,measurement,setting,value
DS-Cav1 (from UniProt P03420 137-513) (domain or fragment),stoichiometry N,[1],3
DS-Cav1-His6 (from UniProt P03420 137-513) (domain or fragment),stoichiometry N,[2],3
same,stoichiometry N,[3],3
same,stoichiometry N,[4],3
SC-TM-His6 (from UniProt P03420 26-513) (domain or fragment),stoichiometry N,[5],3
same,stoichiometry N,[6],3
sc9-10 DS-Cav1 (from UniProt P03420 26-513) (domain or fragment),stoichiometry N,[7],3
sc9-10 DS-Cav1-His6 (from UniProt P03420 26-513) (domain or fragment),stoichiometry N,[8],3
same,stoichiometry N,[9],3
"MPE8 IgG (antibody, V domains shown) VH: EVQLVESGGGLVKPGGSLRLSCAASGFTFSSYSMNWVRQAPGKGLEWVSSISASSSYSDYADSAKGRFTISRDNAKTSLFLQMNSLRAEDTAIYFCARARATGYSSITPYFDIWGQGTLVTVSS VL: QSVVTQTPSVSGAPGQRVTISCTGSSSNIGAGYDVHWYQQLPGTAPKLLIYDNNNRPSGVPDRFSASKSGTSASLAITGLQAEDEADYYCQSYDRNLSGVFGTGTKVTVL",binding result,UFCM1,binds
same,binding result,847A-His6,binds
same,binding result,UFCM1-P2,binds
"MPE8 Fab (Fab, V domains shown) VH: EVQLVESGGGLVKPGGSLRLSCAASGFTFSSYSMNWVRQAPGKGLEWVSSISASSSYSDYADSAKGRFTISRDNAKTSLFLQMNSLRAEDTAIYFCARARATGYSSITPYFDIWGQGTLVTVSS VL: QSVVTQTPSVSGAPGQRVTISCTGSSSNIGAGYDVHWYQQLPGTAPKLLIYDNNNRPSGVPDRFSASKSGTSASLAITGLQAEDEADYYCQSYDRNLSGVFGTGTKVTVL",stoichiometry N,UFCM1-P2-iSS,3 Fabs per trimer
"A4 scFv-Fc (scFv, V domains shown) VH: EVQLVESGGGLVQPGGSLRLSCAASGFTFTTYAMHWVRQSPGKGLEWLASISYDGTSQYYAESVKGRFTVSRDNSKKTLLLQVNSLRPEDTAVYYCAGSPSGHYSWLGYFYAMDVWGQGTLVTVSS VL: QSALTQPASVSGSPGQSITISCTGASSDVGGYDYVSWYQQHPGKAPKLLIYDVSDRPSGVSNRFSGSKSGNTASLTISGLQTEDEADYYCSSYTSKNTLIFGGGTKLTVL","live RSV (RSV-A2-GFP) neutralization, IC50, scFv-Fc form",sc9-10 DS-Cav1,2.1 ng/mL
